We go through one substance from publication doi:10.1101/2024.07.24.604955.

The target in this assay is zebrafish Ctla-4, HA-tagged (pCDNA3.1-HA-Ctla-4) (zebrafish). As to the kind of experiment: Western blot under non-reducing and reducing conditions. (Immunoblotting shows a protein as a band on a membrane.)

For “zebrafish Ctla-4, HA-tagged (pCDNA3.1-HA-Ctla-4) (receptor)”, the stoichiometry N (usually a count of units in the complex or per binding partner) was found to be 2.
